Measurements from the supplement of paper PMC5998384.

Columns and labels:
HeLa Kyoto [1] = experiment: solubility in G1/S (NP-40 vs SDS abundance) (log2 ratio); higher = more soluble; settings: cell cycle stage: G1/S
HeLa Kyoto [2] = experiment: solubility change mitosis vs G1/S (difference of NP-40 vs SDS log2 ratios) (log2 ratio difference); higher = more soluble in mitosis
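For solubility change mitosis vs G1/S (difference of NP-40 vs SDS log2 ratios) in this document: synchronized HeLa Kyoto cells (double thymidine block for G1/S, nocodazole release for mitosis), protein amounts in NP-40 versus SDS lysates quantified by mass spectrometry, three biological replicates.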
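For solubility in G1/S (NP-40 vs SDS abundance) in this document: HeLa Kyoto cells arrested at G1/S by double thymidine block, proteins quantified by TMT10plex mass spectrometry in mild NP-40 versus SDS extracts, three biological replicates.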

Sequence | solubility in G1/S (log2) (HeLa Kyoto [1]) | solubility change mitosis (log2) (HeLa Kyoto [2])
MPGEEEERAFLVAREELASALRRDSGQAFSLEQLRPLLASSLPLAARYLQLDAARLVRCNAHGEPRNYLNTLSTALNILEKYGRNLLSPQRPRYWRGVKFNNPVFRSTVDAVQGGRDVLRLYGYTEEQPDGLSFPEGQEEPDEHQVATVTLEVLLLRTELSLLLQNTHPRQQALEQLLEDKVEDDMLQLSEFDPLLREIAPGPLTTPSVPGSTPGPCFLCGSAPGTLHCPSCKQALCPACDHLFHGHPSRAHHLRQTLPGVLQGTHLSPSLPASAQPRPQSTSLLALGDSSLSSPNPASAHLPWHCAACAMLNEPWAVLCVACDRPRGCKGLGLGTEGPQGTGGLEPDLARGRWACQSCTFENEAAAVLCSICERPRLAQPPSLVVDSRDAGICLQPLQQGDALLASAQSQVWYCIHCTFCNSSPGWVCVMCNRTSSPIPAQHAPRPYASSLEKGPPKPGPPRRLSAPLPSSCGDPEKQRQDKMREEGLQLVSMIREGEAAGACPEEIFSALQYSGTEVPLQWLRSELPYVLEMVAELAGQQDPGLGAFSCQEARRAWLDRHGNLDEAVEECVRTRRRKVQELQSLGFGPEEGSLQALFQHGGDVSRALTELQRQRLEPFRQRLWDSGPEPTPSWDGPDKQSLVRRLLAVYALPSWGRAELALSLLQETPRNYELGDVVEAVRHSQDRAFLRRLLAQECAVCGWALPHNRMQALTSCECTICPDCFRQHFTIALKEKHITDMVCPACGRPDLTDDTQLLSYFSTLDIQLRESLEPDAYALFHKKLTEGVLMRDPKFLWCAQCSFGFIYEREQLEATCPQCHQTFCVRCKRQWEEQHRGRSCEDFQNWKRMNDPEYQAQGLAMYLQENGIDCPKCKFSYALARGGCMHFHCTQCRHQFCSGCYNAFYAKNKCPEPNCRVKKSLHGHHPRDCLFYLRDWTALRLQKLLQDNNVMFNTEPPAGARAVPGGGCRVIEQKEVPNGLRDEACGKETPAGYAGLCQAHYKEYLVSLINAHSLDPATLYEVEELETATERYLHVRPQPLAGEDPPAYQARLLQKLTEEVPLGQSIPRRRK [RNF31] | -0.0767 | -0.0502
MPGRAEAGEAEEEAGAGSGSEAEEDALWERIEGVRHRLARALNPAKLTPYLRQCRVIDEQDEEEVLSTYRFPCRVNRTGRLMDILRCRGKRGYEAFLEALEFYYPEHFTLLTGQEPAQRCSMILDEEGPEGLTQFLMTEVRRLREARKSQLQREQQLQARGRVLEEERAGLEQRLRDQQQAQERCQRLREDWEAGSLELLRLKDENYMIAMRLAQLSEEKNSAVLRSRDLQLAVDQLKLKVSRLEEECALLRRARGPPPGAEEKEKEKEKEKEPDNVDLVSELRAENQRLTASLRELQEGLQQEASRPGAPGSERILLDILEHDWREAQDSRQELCQKLHAVQGELQWAEELRDQYLQEMEDLRLKHRTLQKDCDLYKHRMATVLAQLEEIEKERDQAIQSRDRIQLQYSQSLIEKDQYRKQVRGLEAERDELLTTLTSLEGTKALLEVQLQRAQGGTCLKACASSHSLCSNLSSTWSLSEFPSPLGGPEATGEAAVMGGPEPHNSEEATDSEKEINRLSILPFPPSAGSILRRQREEDPAPPKRSFSSMSDITGSVTLKPWSPGLSSSSSSDSVWPLGKPEGLLARGCGLDFLNRSLAIRVSGRSPPGGPEPQDKGPDGLSFYGDRWSGAVVRRVLSGPGSARMEPREQRVEAAGLEGACLEAEAQQRTLLWNQGSTLPSLMDSKACQSFHEALEAWAKGPGAEPFYIRANLTLPERADPHALCVKAQEILRLVDSAYKRRQEWFCTRVDPLTLRDLDRGTVPNYQRAQQLLEVQEKCLPSSRHRGPRSNLKKRALDQLRLVRPKPVGAPAGDSPDQLLLEPCAEPERSLRPYSLVRPLLVSALRPVVLLPECLAPRLIRNLLDLPSSRLDFQVCPAESLSGEELCPSSAPGAPKAQPATPGLGSRIRAIQESVGKKHCLLELGARGVRELVQNEIYPIVIHVEVTEKNVREVRGLLGRPGWRDSELLRQCRGSEQVLWGLPCSWVQVPAHEWGHAEELAKVVRGRILQEQARLVWVECGSSRGCPSSSEA [CARD10] | -0.0585 | 0.0575
MPLLVEGRRVRLPQSAGDLVRAHPPLEERARLLRGQSVQQVGPQGLLYVQQRELAVTSPKDGSISILGSDDATTCHIVVLRHTGNGATCLTHCDGTDTKAEVPLIMNSIKSFSDHAQCGRLEVHLVGGFSDDRQLSQKLTHQLLSEFDRQEDDIHLVTLCVTELNDREENENHFPVIYGIAVNIKTAEIYRASFQDRGPEEQLRAARTLAGGPMISIYDAETEQLRIGPYSWTPFPHVDFWLHQDDKQILENLSTSPLAEPPHFVEHIRSTLMFLKKHPSPAHTLFSGNKALLYKKNEDGLWEKISSPGS [NTAN1] | -0.142 | 0.176
MPLPGGLWWLLCCRRGFTLLHRDYGDGELSGDGDEDEDEETFELRTPSPAGGGRGPLEVTLTQPVRSGPVSNRLQSWEETWSLIPEKGLPEDDPDIVVKGWLYREPRGGGARPWLPPRRAWFVLTRDSLDQFSSSGKGARRLGSLVLTSLCSVTGPERRRKETGLWSVTVSGRKHSVRLCSPRQAEAERWGVALREVIASKAPLETPTQLLLRDIQESCGDPEAVALIYLRNPILRHTSGALYAPLLPLPYGVSAPGPGYAPLREEAVRLFLALQALEGARRPGPLMQGVLQTCRDLPALRDELFLQLAKQTSGPAGPPGLPATQDPAALRYWQLLTCMSCTFRPGGAVRGHLLGHLERTEQALPDSELAEYARFIRKALGRTRGRELVPSLAEISALSQRQELLCTVHCPGAGACAVAIDSHTTAGEVARELVGRLGLARSRNAFALYEQRGAQERALAGGTLVADVLTRFENLAAEEAGLEDSPDSGWRLCLRLHGPLHPEGLSPDGHELPFLFEQAHALLLRGRPPPPDDTLRALAALRLQSLQRDFSPRVPLPRLDRLLPPPAPPREDPPRPTPRPPPSAALLAGALWSPGLAKRRAERARRGGAGRTAGSIAREGGGGAGTAAAVLGGWKRLRGMGRAEAMAAYLALAAQCPGFGAARYDVLELSTEPGRGAPQKLCLGLGAKAMSLSRPGETEPIHSVSYGHVAACQLMGPHTLALRVGESQLLLQSPQVEEIMQLVNAYLANPSPERPCSSSSPPCQDLPDTSPPSQRPGLDEPQGQSGCLGQLQD [PLEKHH3] | 0.00769 | -0.16
MPLRDKYCQTDHHHHGCCEPVYILEPGDPPLLQQPLQTSKSGIQQIIECFRSGTKQLKHILLKDVDTIFECKLCRSLFRGLPNLITHKKFYCPPSLQMDDNLPDVNDKQSQAINDLLEAIYPSVDKREYIIKLEPIETNQNAVFQYISRTDNPIEVTESSSTPEQTEVQIQETSTEQSKTVPVTDTEVETVEPPPVEIVTDEVAPTSDEQPQESQADLETSDNSDFGHQLICCLCRKEFNSRRGVRRHIRKVHKKKMEELKKYIETRKNPNQSSKGRSKNVLVPLSRSCPVCCKSFATKANVRRHFDEVHRGLRRDSITPDIATKPGQPLFLDSISPKKSFKTRKQKSSSKAEYNLTACKCLLCKRKYSSQIMLKRHMQIVHKITLSGTNSKREKGPNNTANSSEIKVKVEPADSVESSPPSITHSPQNELKGTNHSNEKKNTPAAQKNKVKQDSESPKSTSPSAAGGQQKTRKPKLSAGFDFKQLYCKLCKRQFTSKQNLTKHIELHTDGNNIYVKFYKCPLCTYETRRKRDVIRHITVVHKKSSRYLGKITASLEIRAIKKPIDFVLNKVAKRGPSRDEAKHSDSKHDGTSNSPSKKYEVADVGIEVKVTKNFSLHRCNKCGKAFAKKTYLEHHKKTHKANASNSPEGNKTKGRSTRSKALV [ZNF800] | -3.34 | 1.43
MPLTGVGPGSCRRQIIRALCLLLLLLHAGSAKNIWKRALPARLAEKSRAEEAGAPGGPRQPRADRCPPPPRTLPPGACQAARCQADSECPRHRRCCYNGCAYACLEAVPPPPVLDWLVQPKPRWLGGNGWLLDGPEEVLQAEACSTTEDGAEPLLCPSGYECHILSPGDVAEGIPNRGQCVKQRRQADGRILRHKLYKEYPEGDSKNVAEPGRGQQKHFQ [WFDC1] | 0.101 | 0.522
